Square brackets hold non-standard residues; d marks the D form. Ends that are not written are not given here. Bpa = N[C@@H](Cc1ccc(C(=O)c2ccccc2)cc1)C(=O)O; Phe(4-CN) = N#Cc1ccc(C[C@H](N)C(=O)O)cc1
Key:
endoproteinase Glu-C = endoproteinase Glu-C (Staphylococcus aureus, UniProt P0C1U8)
Procedure: Peptides were first dissolved to 100 μg/μl in DMF and further diluted to 100 μg/ml in either a 10% acetonitrile/water mixture for labelling or a 50 mM ammonium bicarbonate buffer (pH 7.8) for bulk digestion experiments. Prior to labelling the chips with the peptides, they were cleaved into pieces of a few mm^2 and cleaned by sonication in acetone, rinsed with isopropyl alcohol and water and dried with under a stream of nitrogen. Next, remaining organic contaminants were removed in an 02 plasma, which also renders the surface hydrophilic (120 s, PVA-TEPLA GIGAbatch 310 M, 6000 sccm O2, 600 W, 750 mTorr). Immediately afterwards, the chips were immersed in separate wells of a polypropylene 96-well plate, using 100 μl of a 100 μg/ml peptide solution in 10% acetonitrile in water. After overnight incubation, the chips were rinsed excessively with deionized water. […]
After incubation for a specific time at 37° C., 750 μl of a solution with 100 μg/ml substrate and 3.3 μg/ml trypsin or endoproteinase Glu-C in 50-100 mM ammonium bicarbonate was injected in a C-18 reversed phase high-performance liquid chromatography column (Macherey-Nagel) and eluted by a water/acetonitrile gradient (Akta Purifier, GE). The molecular weight of separated fractions was determined using matrix-assisted laser desorption/ionisation time-of-flight mass spectrometry (Bruker MALDI-TOF).

trypsin [1] = target: T1, trypsin (Sus scrofa, UniProt P00761); assay: Bulk (in-solution) trypsin digestion of peptide substrate, RP-HPLC separation and MALDI-TOF mass spectrometry, SERS of separated fractions; type: biochemical; conditions: for change of 1003 cm^-1 phenylalanine SERS peak in cleaved fraction after trypsin cleavage: cleaved vs uncleaved fractions labelled on gold nanodome chips; for extent of substrate digestion by trypsin (RP-HPLC/MALDI-TOF): peptide 100 μg/ml, trypsin 3.3 μg/ml (1/30 w/w), 50 mM ammonium-bicarbonate pH 7.8, 37° C.
T1 construct: purchased Promega V5111
T1 sequence (P00761 9-231): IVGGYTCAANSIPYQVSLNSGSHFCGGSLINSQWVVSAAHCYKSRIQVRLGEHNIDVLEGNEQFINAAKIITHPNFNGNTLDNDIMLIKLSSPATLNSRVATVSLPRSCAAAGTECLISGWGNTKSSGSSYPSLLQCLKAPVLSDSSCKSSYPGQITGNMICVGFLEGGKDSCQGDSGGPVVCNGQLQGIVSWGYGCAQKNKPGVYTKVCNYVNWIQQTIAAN
Procedure: As a first step, the activity of the protease on the substrate in solution was monitored. RP-HPLC was used to separate the substrate from the digestion products, which are subsequently labelled on a nanodome platform. From the difference spectrum, the characteristic peaks of the cleaved-off and remaining fractions are derived. FIG. 4(a2-a4) depicts the results of this experiment for trypsin and its CALNNYGGGGVRGNF (100 μg/ml) (SEQ ID NO:3) substrate. The peptide was incubated with trypsin (3.3 μg/ml) at a 1/30 (w/w) ratio in a 50 mM ammonium-bicarbonate (pH 7.8) buffer in water, and separated with RP-HPLC (FIG. 4(a2)) after 0, 30 and 90 minutes of incubation. The RP-HPLC-separated peptides and their fragments were identified using MALDI-TOF mass spectrometry. […] The dimer formation is a consequence of the oxidation of the cysteine thiol groups upon which a disulphide bond is formed between two peptides. […] Subsequently, nanodome chips were labeled with cleaved and uncleaved fractions. […] Furthermore, the peaks at 618 cm^−1, 1030 cm^−1 and 1207 cm^−1 show a partial decrease, although their signal to noise ratio is low. All these peaks correspond to those attributed to phenylalanine (Table 1). From this experiment, it is concluded that the ratio between the 1003 cm^−1 peak and the 829-860 cm^−1 peaks (I1003/I829-860) is a correct metric for IF/IY, the cleavage of the substrate by trypsin.
The activity of trypsin on the peptides with unnatural aromatic amino acids was verified using HPLC/mass spectrometry, showing complete digestion of 100 μg/ml peptide after 1 hour incubation with a 4 μg/ml Trypsin concentration. Subsequently, cleaved and uncleaved fractions were labelled on a nanodome SERS substrate.

trypsin [2] = target: T1, trypsin; assay: Trypsin hydrolysis of unbound peptide observed through SERS spectra of a non-separated mixture; type: biochemical; conditions: peptide 100 μg/ml, trypsin 2 μg/ml, 2 hours of incubation, no RP-HPLC separation
From the text: Apart from a thiol-gold interaction, N-terminal primary amines can also lead to a charge-based adsorption on metal surfaces (ref 39). This effect may be additive in the case of cysteine, but could lead to the adsorption of unwanted amino acids on the gold surface. In a second set of in-solution experiments, a similar trypsin was run—CALNNYGGGGVRGNF (SEQ ID NO:3) assay without separating the fractions by RP-HPLC (FIG. 5). One nanodome chip was labelled with a reference solution of the peptide (100 μg/ml), another with a solution of peptide (100 μg/ml) and trypsin (2 μg/ml) after 2 hours of incubation. […] Furthermore, the SERS and difference SERS-spectra shown in FIG. 5 confirm the findings of the RP-HPLC experiment in FIG. 4(a).
(§1) Spectra were acquired on a WITec Alpha 300 R+ confocal Raman microscope equipped with spectrometer using a 600 lpmm grating, a −70° C. cooled CCD camera (Andor iDus 401 BR-DD) and a 785 nm diode laser (Toptica, XTRA II). Raman spectra of the peptide powders were acquired using a Zeiss 100×/0.9 EC Epiplan NEOFLUAR; ∞/0 objective and a laser power of 100 mW, measured before the objective. SERS spectra were acquired through a Zeiss 63×/1.0 W-Plan Apochromat ∞/0 objective with 2 mW laser power. […]

trypsin [3] = target: T1, trypsin; assay: SERS-monitored trypsin hydrolysis of gold-nanodome bound peptides (with and without ovomucoid inhibitor); type: biochemical; conditions: for decrease of SERS intensity ratio I1003/I829-860: gold-nanodome bound peptide
Procedure: In a third experimental setup, three CALNNYGGGGVRGNF (SEQ ID NO:3) labelled nanodome chips were incubated in a buffer without trypsin, with trypsin and with trypsin plus an ovomucoid inhibitor for 45 minutes (FIG. 6). […] On the chip with trypsin only, the surface bound peptides are cleaved, resulting in a decrease of 11003/1829-860 by 40-48%. […] Two possible origins are considered for the remaining signal at 1003 cm^−1. […] More likely, the remaining signal originates from peptides that are not accessible to the protease due to steric hindrance. This can be a result of a too dense monolayer of peptides (refs 11, 23) or inaccessible parts of the nanodome geometry. Especially in the latter case, the inaccessible peptides are probably located in the nanodome gaps and will contribute disproportionally strong to the SERS signal.
Spectra were acquired on a WITec Alpha 300 R+ confocal Raman microscope equipped with spectrometer using a 600 lpmm grating, a −70° C. cooled CCD camera (Andor iDus 401 BR-DD) and a 785 nm diode laser (Toptica, XTRA II). Raman spectra of the peptide powders were acquired using a Zeiss 100×/0.9 EC Epiplan NEOFLUAR; ∞/0 objective and a laser power of 100 mW, measured before the objective. SERS spectra were acquired through a Zeiss 63×/1.0 W-Plan Apochromat ∞/0 objective with 2 mW laser power. For real-time monitoring of enzymatic activity, the chip was placed in a metal petri dish filled with 1 ml 50 mM ammonium bicarbonate buffer (pH 7.8) inside a stage-top incubator at 37° C. (Okolab). Because of signal degradation upon laser illumination, each trace is the median spectrum of a spatially distributed map of 10×10 pixels in a 20×20 μm area with an integration time of 1 s on each point. In the real-time assay, every next trace was mapped on a different location on the SERS platform. […]
(§2) Starting from the 10×10 individual spectra, WITec Project Four® was used for removing cosmic rays. […] 11003 and 1829-860 were calculated by integrating the peaks at their respective positions and subtracting the background with a linear fit for the individual spectra. […]

trypsin [4] = target: T1, trypsin; assay: Real-time SERS observation of trypsin activity on gold-nanodome bound peptide; type: biochemical
Procedure: Finally, CALNNYGGGGVRGNF (SEQ ID NO:3) labelled chips were incubated with trypsin under the Raman microscope for a real-time acquisition of SERS spectra. […] A new spectrum was acquired every 2-3 minutes with an integration time of 100 seconds. A relative decrease of I1003 versus the peaks at 829, 860, 948, 1248, 1330, 1603 and 1677 cm^−1 is visible within the first minutes after adding 0.2 μg/ml trypsin (8.6 nM) to a total volume of 1 ml (8.6 pmol), in agreement with Table 1 and the earlier experiments described in this work. SERS spectra after 2 minutes and 30 minutes of trypsin incubation show a further reduction of I1003 and I1206 with increasing incubation time (FIG. 7 (b)). […]
as §1, with “objective.” for “objective. SERS spectra were acquired through a Zeiss 63×/1.0 W-Plan Apochromat ∞/0 objective with 2 mW laser power.”
as §2

endoproteinase Glu-C, sequence (P0C1U8 69-336): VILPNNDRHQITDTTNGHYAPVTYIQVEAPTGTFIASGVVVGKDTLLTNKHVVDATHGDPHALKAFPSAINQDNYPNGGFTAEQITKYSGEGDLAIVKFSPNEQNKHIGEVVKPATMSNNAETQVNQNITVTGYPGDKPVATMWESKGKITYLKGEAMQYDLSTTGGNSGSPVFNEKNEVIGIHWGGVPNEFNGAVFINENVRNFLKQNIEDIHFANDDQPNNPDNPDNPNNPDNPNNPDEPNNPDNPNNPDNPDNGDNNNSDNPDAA

With CALNNYGGGGNNESWH the “conversion of substrate to products by endoproteinase Glu-C (RP-HPLC/mass spectrometry)” value (endoproteinase Glu-C; 4 hours of incubation, peptide 100 μg/ml, endoproteinase Glu-C 3.3 μg/ml) was “almost full conversion” and the “change of 754 cm^-1 and 1356 cm^-1 (tryptophan) SERS peaks upon endoproteinase Glu-C cleavage” value (endoproteinase Glu-C; cleaved peptide vs uncleaved dimer bound to nanodome chips) was “disappearance”.

In the case of “CALNN(bzF)GGGGVRGNF (CALNN[Bpa]GGGGVRGNF) [trypsin substrate analogue, tyrosine replaced by benzoyl-phenylalanine]”, the “change of 1003 cm^-1 phenylalanine SERS peak in cleaved fraction after trypsin cleavage” value (trypsin [1]) is reported as “decrease”.

“CALNNYGGGGVRGNF (trypsin substrate) [trypsin substrate peptide with Tyr and Phe SERS reporters]” was tested, and the “extent of substrate digestion by trypsin (RP-HPLC/MALDI-TOF)” value (trypsin [1]; 30 minutes incubation) was “almost fully digested”, the “extent of substrate digestion by trypsin (RP-HPLC/MALDI-TOF)” value (trypsin [1]; 90 minutes incubation) was “fully cleaved” and the “change of 1003 cm^-1 phenylalanine SERS peak in cleaved fraction after trypsin cleavage” value (trypsin [1]) was “full disappearance”. For the same molecule, the “extent of digestion by trypsin, from lack of 1003 cm^-1 phenylalanine SERS peak” value (trypsin [2]) was “fully digested”, the “decrease of SERS intensity ratio I1003/I829-860” value (trypsin [3]; 45 minutes incubation) was 40-48% and the “decrease of SERS intensity ratio I1003/I829-860” value (trypsin [3]; trypsin) was no more than 53%. For the same molecule, the “time course of digestion of gold-bound peptide in real-time monitoring” value (trypsin [4]; 8.6 nM trypsin concentration) was “immediate digestion within the first two minutes” and the “cleavage of accessible surface-bound substrate in real time (I1003/I829-860 versus time)” value (trypsin [4]; trypsin concentrations ranging from 1 to 0.2 μg/ml, 37° C., spectrum every 2-3 minutes) was “most of the accessible substrate was cleaved within the time-span of the first measurement”.

In the case of “CALNN(cnF)GGGGVRGNF (CALNN[Phe(4-CN)]GGGGVRGNF) [trypsin substrate analogue, tyrosine replaced by 4-cyano-phenylalanine]”, the “change of 1003 cm^-1 phenylalanine SERS peak in cleaved fraction after trypsin cleavage” value (trypsin [1]) is reported as “complete disappearance”.

B1: ovomucoid inhibitor: Ovomucoid (Type II-0) Trypsin inhibitor from chicken egg white (Sigma, T9253) (protein, UniProt P01005 25-210, looked up)
Ovomucoid: AEVDCSRFPNATDKEGKDVLVCNKDLRPICGTDGVTYTNDCLLCAYSIEFGTNISKEHDGECKETVPMNCSSYANTTSEDGKVMVLCNRAFNPVCGTDGVTYDNECLLCAHKVEQGASVDKRHDGGCRKELAAVSVDCSEYPKPDCTAEDRPLCGSDNKTYGNKCNFCNAVVESNGTLTLSHFGKC
For B1, the “inhibition of tryptic cleavage of surface-bound peptide (SERS spectrum vs reference chip)” value (trypsin [3]; trypsin plus ovomucoid inhibitor, 45 minutes, inhibitor 100 μg/ml, substrate CALNNYGGGGVRGNF on nanodome chip) was “full blockade of tryptic cleavage”.

Reference: patent US20210079444A1, “LABEL FREE DETECTION OF PROTEASE ACTIVITY” (VIB VZW, priority 2017, published 2021)
